Laboratory results taken from PMC9482650, “Quantitative fragmentomics allow affinity mapping of interactomes” (Nature Communications, 2022).

T1: PTPN4, P29074
T1 sequence (P29074 512-599, limits assumed, looked up): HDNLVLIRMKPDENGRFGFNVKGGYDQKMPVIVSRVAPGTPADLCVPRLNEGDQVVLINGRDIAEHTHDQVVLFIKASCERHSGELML

T2: PDZD2_3, O15018
T2 sequence (O15018 581-682, limits assumed, looked up): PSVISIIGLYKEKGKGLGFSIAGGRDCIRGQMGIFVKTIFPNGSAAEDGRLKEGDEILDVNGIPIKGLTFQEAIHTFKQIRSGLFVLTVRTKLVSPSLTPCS

T3: PARD6B, Q9BYG5
T3 sequence (Q9BYG5 152-260, limits assumed, looked up): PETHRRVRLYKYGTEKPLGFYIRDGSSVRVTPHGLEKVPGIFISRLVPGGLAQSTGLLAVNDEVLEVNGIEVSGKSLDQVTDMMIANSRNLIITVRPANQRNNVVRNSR

T4: MPDZ_2, O75970
T4 sequence (O75970 252-347, limits assumed, looked up): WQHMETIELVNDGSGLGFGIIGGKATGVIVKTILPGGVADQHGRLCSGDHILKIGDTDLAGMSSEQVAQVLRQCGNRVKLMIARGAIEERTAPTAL

T5: INTU, Q9ULD6
T5 sequence (Q9ULD6 180-273, limits assumed, looked up): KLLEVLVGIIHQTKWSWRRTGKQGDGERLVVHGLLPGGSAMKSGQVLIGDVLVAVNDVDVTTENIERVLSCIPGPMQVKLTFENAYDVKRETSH

T6: SIPA1L3, O60292
T6 sequence (O60292 961-1052, limits assumed, looked up): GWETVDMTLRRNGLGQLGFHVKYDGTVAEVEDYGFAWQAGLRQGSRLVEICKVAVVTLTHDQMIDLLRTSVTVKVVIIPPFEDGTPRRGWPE

T7: SYNPO2L, Q9H987
T7 sequence (Q9H987 1-98, limits assumed, looked up): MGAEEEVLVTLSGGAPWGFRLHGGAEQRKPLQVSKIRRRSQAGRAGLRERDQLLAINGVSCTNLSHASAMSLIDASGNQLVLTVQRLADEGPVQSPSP

T8: PTPN13_5, Q12923
T8 sequence (Q12923 1877-1975, limits assumed, looked up): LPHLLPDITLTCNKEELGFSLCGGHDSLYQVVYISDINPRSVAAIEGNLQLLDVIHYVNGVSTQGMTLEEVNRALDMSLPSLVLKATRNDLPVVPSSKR

T9: APBA3_2, O96018
T9 sequence (O96018 480-570, limits assumed, looked up): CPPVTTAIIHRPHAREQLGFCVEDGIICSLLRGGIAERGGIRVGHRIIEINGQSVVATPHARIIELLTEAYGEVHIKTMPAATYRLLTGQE

T10: SHROOM2, Q13796
T10 sequence (Q13796 21-118, limits assumed, looked up): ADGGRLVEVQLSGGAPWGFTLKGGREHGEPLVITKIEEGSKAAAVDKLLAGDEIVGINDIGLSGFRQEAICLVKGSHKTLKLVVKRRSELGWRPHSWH

T11: USH1C_3, Q9Y6N9
T11 sequence (Q9Y6N9 447-547, limits assumed, looked up): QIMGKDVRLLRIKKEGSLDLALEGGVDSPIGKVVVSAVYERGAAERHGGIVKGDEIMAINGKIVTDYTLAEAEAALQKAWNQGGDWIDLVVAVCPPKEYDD

T12: TJP3_2, O95049
T12 sequence (O95049 190-282, limits assumed, looked up): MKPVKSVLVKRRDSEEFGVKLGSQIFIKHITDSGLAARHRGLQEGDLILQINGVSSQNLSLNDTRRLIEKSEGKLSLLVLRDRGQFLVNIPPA

T13: PDZD8, Q8NEN9
T13 sequence (Q8NEN9 361-459, limits assumed, looked up): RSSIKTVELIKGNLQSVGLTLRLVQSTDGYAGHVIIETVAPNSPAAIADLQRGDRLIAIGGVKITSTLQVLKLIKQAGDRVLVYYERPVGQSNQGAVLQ

T14: NHERF1_2, O14745
T14 sequence (O14745 149-244, limits assumed, looked up): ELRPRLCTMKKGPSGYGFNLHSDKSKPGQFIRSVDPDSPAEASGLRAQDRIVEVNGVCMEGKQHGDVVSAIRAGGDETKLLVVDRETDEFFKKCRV

T15: PDZD2_5, O15018
T15 sequence (O15018 2617-2716, limits assumed, looked up): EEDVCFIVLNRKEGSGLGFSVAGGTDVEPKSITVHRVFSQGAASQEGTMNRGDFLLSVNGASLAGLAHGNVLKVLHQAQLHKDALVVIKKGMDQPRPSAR


Target: T1, PTPN4, P29074
Assay: holdup assay
Design: key: below the threshold = too weak to quantify, mostly under pKd 3.1 to 4
Conditions: plain residues with an end cap or a label only (N-terminal biotin on a linker: ttds)

Binder	pKd
QRQARSETLV [HPV59-E6, Q81964]	below the threshold
RHTTSTETAV [HPV30-E6, P36809]	4.72
SGSRPSATVV [HPV73-E6, Q82005]	4.65

Target: T2, PDZD2_3, O15018
Assay: holdup assay
Design: key: below the threshold = too weak to quantify, mostly under pKd 3.1 to 4
Conditions: plain residues with an end cap or a label only (N-terminal biotin on a linker: ttds)

Binder	pKd
QRQARSETLV [HPV59-E6, Q81964]	below the threshold
RHTTSTETAV [HPV30-E6, P36809]	below the threshold
SGSRPSATVV [HPV73-E6, Q82005]	below the threshold

Target: MAGI1_3, Q96QZ7
Sequence (Q96QZ7 638-725): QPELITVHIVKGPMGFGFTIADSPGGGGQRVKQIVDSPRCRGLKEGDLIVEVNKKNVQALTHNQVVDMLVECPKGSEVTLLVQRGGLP
Assay: holdup assay
Design: key: below the threshold = too weak to quantify, mostly under pKd 3.1 to 4
Conditions: plain residues with an end cap or a label only (N-terminal biotin on a linker: ttds)

Binder	pKd
QRQARSETLV [HPV59-E6, Q81964]	5.25
RHTTSTETAV [HPV30-E6, P36809]	4.72
SGSRPSATVV [HPV73-E6, Q82005]	below the threshold

Target: RIMS1, Q86UR5
Sequence (Q86UR5 584-692): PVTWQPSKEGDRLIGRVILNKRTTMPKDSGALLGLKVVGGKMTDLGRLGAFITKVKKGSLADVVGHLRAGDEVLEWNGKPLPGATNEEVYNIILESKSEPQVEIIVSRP
Assay: holdup assay
Design: key: below the threshold = too weak to quantify, mostly under pKd 3.1 to 4
Conditions: plain residues with an end cap or a label only (N-terminal biotin on a linker: ttds)

Binder	pKd
QRQARSETLV [HPV59-E6, Q81964]	below the threshold
RHTTSTETAV [HPV30-E6, P36809]	below the threshold
SGSRPSATVV [HPV73-E6, Q82005]	below the threshold

Target: T3, PARD6B, Q9BYG5
Assay: holdup assay
Design: key: below the threshold = too weak to quantify, mostly under pKd 3.1 to 4
Conditions: plain residues with an end cap or a label only (N-terminal biotin on a linker: ttds)

Binder	pKd
QRQARSETLV [HPV59-E6, Q81964]	below the threshold
RHTTSTETAV [HPV30-E6, P36809]	below the threshold
SGSRPSATVV [HPV73-E6, Q82005]	below the threshold

Target: T4, MPDZ_2, O75970
Assay: holdup assay
Design: key: below the threshold = too weak to quantify, mostly under pKd 3.1 to 4
Conditions: plain residues with an end cap or a label only (N-terminal biotin on a linker: ttds)

Binder	pKd
QRQARSETLV [HPV59-E6, Q81964]	below the threshold
RHTTSTETAV [HPV30-E6, P36809]	below the threshold

Target: PDLIM4, P50479
Sequence (P50479 1-83): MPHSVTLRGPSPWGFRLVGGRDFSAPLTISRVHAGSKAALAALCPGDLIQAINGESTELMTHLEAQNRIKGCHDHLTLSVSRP
Assay: holdup assay
Design: key: below the threshold = too weak to quantify, mostly under pKd 3.1 to 4
Conditions: plain residues with an end cap or a label only (N-terminal biotin on a linker: ttds)

Binder	pKd
QRQARSETLV [HPV59-E6, Q81964]	below the threshold
RHTTSTETAV [HPV30-E6, P36809]	below the threshold
SGSRPSATVV [HPV73-E6, Q82005]	below the threshold

Target: T5, INTU, Q9ULD6
Assay: holdup assay
Design: key: below the threshold = too weak to quantify, mostly under pKd 3.1 to 4
Conditions: plain residues with an end cap or a label only (N-terminal biotin on a linker: ttds)

Binder	pKd
QRQARSETLV [HPV59-E6, Q81964]	below the threshold
RHTTSTETAV [HPV30-E6, P36809]	below the threshold
SGSRPSATVV [HPV73-E6, Q82005]	4.58

Target: T6, SIPA1L3, O60292
Assay: holdup assay
Design: key: below the threshold = too weak to quantify, mostly under pKd 3.1 to 4
Conditions: plain residues with an end cap or a label only (N-terminal biotin on a linker: ttds)

Binder	pKd
QRQARSETLV [HPV59-E6, Q81964]	below the threshold
RHTTSTETAV [HPV30-E6, P36809]	below the threshold
SGSRPSATVV [HPV73-E6, Q82005]	4.17

Target: T7, SYNPO2L, Q9H987
Assay: holdup assay
Design: key: below the threshold = too weak to quantify, mostly under pKd 3.1 to 4
Conditions: plain residues with an end cap or a label only (N-terminal biotin on a linker: ttds)

Binder	pKd
QRQARSETLV [HPV59-E6, Q81964]	below the threshold
RHTTSTETAV [HPV30-E6, P36809]	below the threshold
SGSRPSATVV [HPV73-E6, Q82005]	below the threshold

Target: T8, PTPN13_5, Q12923
Assay: holdup assay
Design: key: below the threshold = too weak to quantify, mostly under pKd 3.1 to 4
Conditions: plain residues with an end cap or a label only (N-terminal biotin on a linker: ttds)

Binder	pKd
QRQARSETLV [HPV59-E6, Q81964]	4.52
RHTTSTETAV [HPV30-E6, P36809]	below the threshold
SGSRPSATVV [HPV73-E6, Q82005]	below the threshold

Target: T9, APBA3_2, O96018
Assay: holdup assay
Design: key: below the threshold = too weak to quantify, mostly under pKd 3.1 to 4
Conditions: plain residues with an end cap or a label only (N-terminal biotin on a linker: ttds)

Binder	pKd
QRQARSETLV [HPV59-E6, Q81964]	below the threshold
RHTTSTETAV [HPV30-E6, P36809]	below the threshold
SGSRPSATVV [HPV73-E6, Q82005]	below the threshold

Target: T10, SHROOM2, Q13796
Assay: holdup assay
Design: key: below the threshold = too weak to quantify, mostly under pKd 3.1 to 4
Conditions: plain residues with an end cap or a label only (N-terminal biotin on a linker: ttds)

Binder	pKd
QRQARSETLV [HPV59-E6, Q81964]	below the threshold
RHTTSTETAV [HPV30-E6, P36809]	below the threshold
SGSRPSATVV [HPV73-E6, Q82005]	below the threshold

Target: T11, USH1C_3, Q9Y6N9
Assay: holdup assay
Design: key: below the threshold = too weak to quantify, mostly under pKd 3.1 to 4
Conditions: plain residues with an end cap or a label only (N-terminal biotin on a linker: ttds)

Binder	pKd
QRQARSETLV [HPV59-E6, Q81964]	below the threshold
RHTTSTETAV [HPV30-E6, P36809]	below the threshold
SGSRPSATVV [HPV73-E6, Q82005]	below the threshold

Target: T12, TJP3_2, O95049
Assay: holdup assay
Design: key: below the threshold = too weak to quantify, mostly under pKd 3.1 to 4
Conditions: plain residues with an end cap or a label only (N-terminal biotin on a linker: ttds)

Binder	pKd
QRQARSETLV [HPV59-E6, Q81964]	below the threshold
RHTTSTETAV [HPV30-E6, P36809]	below the threshold
SGSRPSATVV [HPV73-E6, Q82005]	below the threshold

Target: T13, PDZD8, Q8NEN9
Assay: holdup assay
Design: key: below the threshold = too weak to quantify, mostly under pKd 3.1 to 4
Conditions: plain residues with an end cap or a label only (N-terminal biotin on a linker: ttds)

Binder	pKd
QRQARSETLV [HPV59-E6, Q81964]	below the threshold
RHTTSTETAV [HPV30-E6, P36809]	below the threshold
SGSRPSATVV [HPV73-E6, Q82005]	4.04

Target: PARD3B_3, Q8TEW8
Sequence (Q8TEW8 490-594): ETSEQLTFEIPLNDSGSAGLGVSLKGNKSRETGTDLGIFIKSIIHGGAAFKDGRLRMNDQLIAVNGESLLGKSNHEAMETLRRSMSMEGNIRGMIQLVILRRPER
Assay: holdup assay
Design: key: below the threshold = too weak to quantify, mostly under pKd 3.1 to 4
Conditions: plain residues with an end cap or a label only (N-terminal biotin on a linker: ttds)

Binder	pKd
QRQARSETLV [HPV59-E6, Q81964]	below the threshold
RHTTSTETAV [HPV30-E6, P36809]	below the threshold
SGSRPSATVV [HPV73-E6, Q82005]	below the threshold

Target: RGS3, P49796-9
Sequence (P49796 other isoform, or with tags, fused parts or gaps): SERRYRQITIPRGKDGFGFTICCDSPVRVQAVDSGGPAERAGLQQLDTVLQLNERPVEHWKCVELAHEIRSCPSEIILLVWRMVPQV
Assay: holdup assay
Design: key: below the threshold = too weak to quantify, mostly under pKd 3.1 to 4
Conditions: plain residues with an end cap or a label only (N-terminal biotin on a linker: ttds)

Binder	pKd
QRQARSETLV [HPV59-E6, Q81964]	below the threshold
RHTTSTETAV [HPV30-E6, P36809]	below the threshold
SGSRPSATVV [HPV73-E6, Q82005]	below the threshold

Target: T14, NHERF1_2, O14745
Assay: holdup assay
Design: key: below the threshold = too weak to quantify, mostly under pKd 3.1 to 4
Conditions: plain residues with an end cap or a label only (N-terminal biotin on a linker: ttds)

Binder	pKd
QRQARSETLV [HPV59-E6, Q81964]	below the threshold
RHTTSTETAV [HPV30-E6, P36809]	below the threshold
SGSRPSATVV [HPV73-E6, Q82005]	below the threshold

Target: T15, PDZD2_5, O15018
Assay: holdup assay
Design: key: below the threshold = too weak to quantify, mostly under pKd 3.1 to 4
Conditions: plain residues with an end cap or a label only (N-terminal biotin on a linker: ttds)

Binder	pKd
QRQARSETLV [HPV59-E6, Q81964]	below the threshold
RHTTSTETAV [HPV30-E6, P36809]	below the threshold
SGSRPSATVV [HPV73-E6, Q82005]	below the threshold

Target: NHERF4_3, Q86UT5
Sequence (Q86UT5 325-412): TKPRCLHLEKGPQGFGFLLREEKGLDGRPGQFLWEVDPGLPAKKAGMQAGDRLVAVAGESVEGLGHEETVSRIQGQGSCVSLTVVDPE
Assay: holdup assay
Design: key: below the threshold = too weak to quantify, mostly under pKd 3.1 to 4
Conditions: plain residues with an end cap or a label only (N-terminal biotin on a linker: ttds)

Binder	pKd
QRQARSETLV [HPV59-E6, Q81964]	4.28
RHTTSTETAV [HPV30-E6, P36809]	below the threshold
SGSRPSATVV [HPV73-E6, Q82005]	below the threshold
